Results from IntAct's records for PubMed 11264384.

Target: nef_hv1a2 nef (UniProt P03407)
Sequence (P03407 whole entry): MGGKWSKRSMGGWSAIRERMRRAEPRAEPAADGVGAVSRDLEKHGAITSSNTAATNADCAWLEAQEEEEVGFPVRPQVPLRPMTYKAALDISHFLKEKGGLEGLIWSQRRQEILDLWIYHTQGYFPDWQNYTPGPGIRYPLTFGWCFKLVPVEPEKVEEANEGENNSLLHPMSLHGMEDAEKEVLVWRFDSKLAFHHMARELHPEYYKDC

“T-cell surface glycoprotein CD4 (Homo sapiens) (from UniProt P01730) L438A;L439A” was tested. Which “effect of a mutation on the interaction” value did it give?
Its value is “disrupting interaction strength”.
